B1: hEPG5-LIR2 peptide (peptide)
peptide: DEDPETSWILLN
notes: source: synthetic peptide (GenScript)
B2: hEPG5-LIR1 peptide (peptide)
peptide: GSGTWTLVDEG
notes: human EPG5 residues 546-556, holding the LIR1 motif 550WTLV553; source: synthetic peptide (LifeTein)
B3: GST-GABARAP (natural protein, human, UniProt O95166 1-117, looked up)
chain: MKFVYKEEHPFEKRRSEGEKIRKKYPDRVPVIVEKAPKARIGDLDKKKYLVPSDLTVGQFYFLIRKRIHLRAEDALFFFVNNVIPPTSATMGQLYQEHHEEDFFLYIAYSDESVYGL

Columns and labels:
Details in all cases: both partners purified
[1] = biological target: His-LC3A (human, UniProt Q9H492 1-121); test: ITC; 0.6 mM peptide titrated into 0.06 mM His-LC3/GABARAP protein in 20 steps at 25 °C; 50 mM Tris pH 7.0, 25 mM NaCl; one-site binding model
[2] = biological target: His-LC3B (human, UniProt Q9GZQ8 1-120); test: as above
[3] = biological target: His-GABARAP (human, UniProt O95166 1-117); test: as above
[4] = biological target: His-GABARAPL2 (human, UniProt P60520 1-117); test: as above
His-GABARAPL2, sequence (P60520 whole entry): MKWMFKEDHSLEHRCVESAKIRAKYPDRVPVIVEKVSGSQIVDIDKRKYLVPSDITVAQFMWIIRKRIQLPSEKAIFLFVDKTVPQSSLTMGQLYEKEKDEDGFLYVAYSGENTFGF

[5] = biological target: His-GABARAPL1 (human, UniProt Q9H0R8 1-117); test: as above
His-GABARAPL1, sequence (Q9H0R8 whole entry): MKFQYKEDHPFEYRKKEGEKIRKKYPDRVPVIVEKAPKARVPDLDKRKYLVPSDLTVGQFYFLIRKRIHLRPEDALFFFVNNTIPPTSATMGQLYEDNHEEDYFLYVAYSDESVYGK

[6] = biological target: T1, His-FLAG-hEPG5 (human EPG5, full length, wild type) (human, UniProt Q9HCE0 1-2579); test: pull-down; co-purification: His-FLAG-hEPG5 bound to Ni-NTA resin, GST-GABARAP applied, washed, eluted with imidazole; 50 mM Na phosphate pH 7.4, 150 mM NaCl, 0.01% TWEEN 20, 5% glycerol; complex seen on SDS-PAGE and by negative stain EM 2D class averages
T1 construct: His-FLAG tag from a modified pFastBacHTB; also called hEPG5^WT; ectopic P-granules autophagy protein 5
T1 sequence (Q9HCE0 whole entry): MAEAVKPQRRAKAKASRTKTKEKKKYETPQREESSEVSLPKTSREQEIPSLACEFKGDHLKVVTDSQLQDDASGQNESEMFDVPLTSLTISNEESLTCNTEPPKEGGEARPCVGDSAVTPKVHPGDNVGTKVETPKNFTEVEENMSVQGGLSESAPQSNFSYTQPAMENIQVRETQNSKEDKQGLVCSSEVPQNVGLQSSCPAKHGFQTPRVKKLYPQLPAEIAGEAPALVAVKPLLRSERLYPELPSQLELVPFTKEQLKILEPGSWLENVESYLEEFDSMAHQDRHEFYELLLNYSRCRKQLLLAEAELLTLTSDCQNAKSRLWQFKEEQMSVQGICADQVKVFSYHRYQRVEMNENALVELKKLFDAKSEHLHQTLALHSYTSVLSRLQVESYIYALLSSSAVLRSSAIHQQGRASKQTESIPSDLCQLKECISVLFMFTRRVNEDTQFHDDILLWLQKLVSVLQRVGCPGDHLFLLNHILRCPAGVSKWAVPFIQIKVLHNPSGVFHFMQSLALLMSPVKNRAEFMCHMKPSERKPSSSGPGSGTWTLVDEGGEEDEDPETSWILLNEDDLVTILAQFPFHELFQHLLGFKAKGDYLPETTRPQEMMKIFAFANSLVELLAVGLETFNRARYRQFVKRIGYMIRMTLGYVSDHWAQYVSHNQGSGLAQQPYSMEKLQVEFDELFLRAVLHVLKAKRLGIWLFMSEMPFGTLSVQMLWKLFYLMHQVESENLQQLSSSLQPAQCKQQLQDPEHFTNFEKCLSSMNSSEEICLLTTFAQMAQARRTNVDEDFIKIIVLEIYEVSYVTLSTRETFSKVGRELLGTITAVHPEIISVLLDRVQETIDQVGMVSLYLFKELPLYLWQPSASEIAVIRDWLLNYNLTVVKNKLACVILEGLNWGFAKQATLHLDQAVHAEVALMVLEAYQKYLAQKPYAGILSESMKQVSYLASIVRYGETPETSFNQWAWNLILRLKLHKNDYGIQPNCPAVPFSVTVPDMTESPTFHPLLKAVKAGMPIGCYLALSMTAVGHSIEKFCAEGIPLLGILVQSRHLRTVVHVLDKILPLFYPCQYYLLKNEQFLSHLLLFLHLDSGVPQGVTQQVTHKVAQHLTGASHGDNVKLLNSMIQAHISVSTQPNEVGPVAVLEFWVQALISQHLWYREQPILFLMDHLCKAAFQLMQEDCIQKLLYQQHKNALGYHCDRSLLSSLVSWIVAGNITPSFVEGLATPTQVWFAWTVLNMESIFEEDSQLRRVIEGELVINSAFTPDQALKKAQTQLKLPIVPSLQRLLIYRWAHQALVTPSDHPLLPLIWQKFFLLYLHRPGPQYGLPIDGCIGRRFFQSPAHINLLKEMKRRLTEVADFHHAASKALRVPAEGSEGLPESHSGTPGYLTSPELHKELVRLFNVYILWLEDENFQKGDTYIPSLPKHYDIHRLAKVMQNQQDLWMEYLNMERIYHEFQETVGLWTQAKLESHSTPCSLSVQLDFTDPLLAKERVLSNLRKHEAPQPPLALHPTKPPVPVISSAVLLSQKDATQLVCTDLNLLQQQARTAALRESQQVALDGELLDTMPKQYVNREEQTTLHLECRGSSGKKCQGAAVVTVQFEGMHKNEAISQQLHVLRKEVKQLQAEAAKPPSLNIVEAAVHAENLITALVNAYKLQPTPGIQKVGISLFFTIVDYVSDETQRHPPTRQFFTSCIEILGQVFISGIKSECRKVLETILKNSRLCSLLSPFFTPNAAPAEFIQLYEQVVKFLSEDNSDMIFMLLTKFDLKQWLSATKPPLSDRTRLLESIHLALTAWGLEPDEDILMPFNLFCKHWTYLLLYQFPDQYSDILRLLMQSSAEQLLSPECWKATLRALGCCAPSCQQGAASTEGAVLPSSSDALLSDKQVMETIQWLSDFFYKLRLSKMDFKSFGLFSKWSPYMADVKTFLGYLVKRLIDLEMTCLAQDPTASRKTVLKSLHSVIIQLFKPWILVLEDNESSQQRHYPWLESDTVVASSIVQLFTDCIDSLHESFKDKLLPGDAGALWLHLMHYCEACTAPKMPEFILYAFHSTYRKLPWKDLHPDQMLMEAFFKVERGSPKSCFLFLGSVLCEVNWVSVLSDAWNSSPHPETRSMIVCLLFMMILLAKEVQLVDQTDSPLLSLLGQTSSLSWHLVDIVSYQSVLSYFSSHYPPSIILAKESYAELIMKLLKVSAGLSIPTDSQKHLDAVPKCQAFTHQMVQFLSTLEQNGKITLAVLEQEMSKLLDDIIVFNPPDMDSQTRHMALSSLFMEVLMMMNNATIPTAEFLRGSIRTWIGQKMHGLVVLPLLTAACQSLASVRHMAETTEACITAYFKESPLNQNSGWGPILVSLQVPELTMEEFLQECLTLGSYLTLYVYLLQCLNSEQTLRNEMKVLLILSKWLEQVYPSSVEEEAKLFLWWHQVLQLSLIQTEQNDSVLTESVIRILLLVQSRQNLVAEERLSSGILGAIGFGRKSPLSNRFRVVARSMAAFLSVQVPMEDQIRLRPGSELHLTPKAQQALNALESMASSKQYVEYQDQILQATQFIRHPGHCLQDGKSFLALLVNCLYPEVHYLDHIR

[7] = biological target: T2, hEPG5^Δ1770–2579 (human, UniProt Q9HCE0 1-1769); test: pull-down; GST pull-down: purified GST-LC3A/B/C or GST-GABARAP/L1/L2 bait (200–240 µg) on glutathione resin, purified His-FLAG-hEPG5 or mutant (25–30 µg) as prey; 50 mM Tris pH 8.0, 150 mM NaCl, 5% glycerol, 0.01% Tween20, 0.5 mM DTT, 4 °C; anti-FLAG fluorescence western blot
T2 construct: also called truncated hEPG5 lacking the entire C-terminal region

[8] = biological target: T3, hEPG5^Δ1–548 (human, UniProt Q9HCE0 549-2579); test: as above
T3 construct: also called truncated hEPG5 devoid of the region between the N-terminus and the two LIR motifs
T3 sequence (Q9HCE0 549-2579, stated change not applied): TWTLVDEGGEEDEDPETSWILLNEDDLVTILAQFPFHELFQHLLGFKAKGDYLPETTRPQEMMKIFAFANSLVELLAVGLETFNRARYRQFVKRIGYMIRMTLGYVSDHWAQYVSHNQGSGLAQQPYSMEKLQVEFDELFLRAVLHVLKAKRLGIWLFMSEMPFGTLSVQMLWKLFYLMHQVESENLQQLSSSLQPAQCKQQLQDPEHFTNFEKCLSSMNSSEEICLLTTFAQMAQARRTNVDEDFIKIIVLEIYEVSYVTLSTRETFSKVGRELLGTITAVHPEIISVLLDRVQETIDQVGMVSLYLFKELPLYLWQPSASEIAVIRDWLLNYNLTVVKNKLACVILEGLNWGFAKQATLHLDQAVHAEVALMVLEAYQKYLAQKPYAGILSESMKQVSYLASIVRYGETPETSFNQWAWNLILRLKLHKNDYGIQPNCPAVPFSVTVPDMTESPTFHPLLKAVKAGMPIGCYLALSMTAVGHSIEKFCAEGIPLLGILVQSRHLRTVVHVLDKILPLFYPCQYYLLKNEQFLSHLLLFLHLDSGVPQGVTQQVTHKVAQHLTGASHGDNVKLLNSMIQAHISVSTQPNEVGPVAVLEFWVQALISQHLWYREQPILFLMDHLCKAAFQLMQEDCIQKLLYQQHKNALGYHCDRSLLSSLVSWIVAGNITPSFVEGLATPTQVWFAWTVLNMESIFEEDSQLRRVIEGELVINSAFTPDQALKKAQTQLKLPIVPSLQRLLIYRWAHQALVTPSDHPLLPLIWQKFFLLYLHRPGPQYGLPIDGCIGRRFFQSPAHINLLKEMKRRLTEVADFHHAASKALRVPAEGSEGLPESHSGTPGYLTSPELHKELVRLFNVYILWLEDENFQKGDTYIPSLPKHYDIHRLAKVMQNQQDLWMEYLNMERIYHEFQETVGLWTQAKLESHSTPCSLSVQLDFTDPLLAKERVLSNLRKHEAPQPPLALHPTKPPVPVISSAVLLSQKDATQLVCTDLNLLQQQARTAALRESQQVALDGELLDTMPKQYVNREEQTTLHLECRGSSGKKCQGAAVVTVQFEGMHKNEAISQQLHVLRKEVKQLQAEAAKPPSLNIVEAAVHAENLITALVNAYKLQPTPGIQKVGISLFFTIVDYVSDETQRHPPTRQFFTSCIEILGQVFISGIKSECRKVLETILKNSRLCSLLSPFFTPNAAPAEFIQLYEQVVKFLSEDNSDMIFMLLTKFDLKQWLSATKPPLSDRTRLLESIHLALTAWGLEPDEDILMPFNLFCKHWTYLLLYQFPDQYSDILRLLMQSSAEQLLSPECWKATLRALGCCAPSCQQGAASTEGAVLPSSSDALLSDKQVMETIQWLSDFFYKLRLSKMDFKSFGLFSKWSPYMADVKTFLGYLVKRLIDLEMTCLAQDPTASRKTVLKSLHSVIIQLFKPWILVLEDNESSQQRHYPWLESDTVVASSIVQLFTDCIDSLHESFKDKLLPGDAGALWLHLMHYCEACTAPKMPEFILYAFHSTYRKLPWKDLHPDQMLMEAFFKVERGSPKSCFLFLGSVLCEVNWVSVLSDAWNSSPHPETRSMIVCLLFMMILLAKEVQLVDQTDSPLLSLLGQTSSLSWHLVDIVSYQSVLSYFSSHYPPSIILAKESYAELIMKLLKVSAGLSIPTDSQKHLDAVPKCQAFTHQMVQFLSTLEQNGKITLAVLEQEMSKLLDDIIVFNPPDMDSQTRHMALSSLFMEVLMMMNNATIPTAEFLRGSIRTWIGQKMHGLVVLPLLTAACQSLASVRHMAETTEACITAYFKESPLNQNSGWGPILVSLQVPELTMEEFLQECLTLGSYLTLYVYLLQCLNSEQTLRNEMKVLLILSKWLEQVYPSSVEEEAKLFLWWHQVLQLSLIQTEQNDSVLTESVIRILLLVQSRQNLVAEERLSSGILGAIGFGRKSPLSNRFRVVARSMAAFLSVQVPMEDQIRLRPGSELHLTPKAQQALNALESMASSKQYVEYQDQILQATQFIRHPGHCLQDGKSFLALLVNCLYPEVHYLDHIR

[9] = biological target: T4, hEPG5^W567A (human, UniProt Q9HCE0 1-2579, W567A); test: as above
T4 construct: also called LIR2 mutant
T4 sequence (Q9HCE0 whole entry W567A): as the sequence (Q9HCE0 whole entry) above, with W567A counted along it

[10] = biological target: T5, hEPG5^F794A (human, UniProt Q9HCE0 1-2579, F794A); test: as above
T5 construct: also called third LIR motif mutant
T5 sequence (Q9HCE0 whole entry F794A): as the sequence (Q9HCE0 whole entry) above, with F794A counted along it

[11] = biological target: T6, hEPG5^Q336R (human, UniProt Q9HCE0 1-2579, Q336R); test: as above
T6 construct: human EPG5, full length, with the Vici syndrome missense mutation Q336R (c.1007A>G); also called Gln336Arg; Vici syndrome mutant
T6 sequence (Q9HCE0 whole entry Q336R): as the sequence (Q9HCE0 whole entry) above, with Q336R counted along it

| Binder | Kd [1] [µM] | Kd [2] [µM] | Kd [3] [µM] | Kd [4] [µM] | fold KD relative to LIR1-GABARAP [1] [times] | Kd [5] [µM] | binding result [6] | binding result [7] | binding result [8] | binding result [9] | binding result [10] | binding result [11] |
| --- | --- | --- | --- | --- | --- | --- | --- | --- | --- | --- | --- | --- |
| B1 | 1.75 | 4.07 | 0.16 | 0.68 |  |  |  |  |  |  |  |  |
| B2 |  |  | 7.47 | 11.8 | 3 | 8.54 |  |  |  |  |  |  |
| B3 |  |  |  |  |  |  | binds | binds | binds | binds | binds | binds |

From PMC7935953, “Insights on autophagosome–lysosome tethering from structural and biochemical characterization of human autophagy factor EPG5” (Communications Biology, 2021)
